According to PMC3431306 (2012):

B1: FIV CA N-terminal domain (CA^N) (domain or fragment)
chain: PIQTVNGVPQYVALDPKMVSIFMEKAREGLGGEEVQLWFTAFSANLTPTDMATLIMAAPGCAADKEILDESLKQLTAEYDRTHPPDAPRPLPYFTAAEIMGIGLTQEQQAEARFAPARMQCRAWYLEALGKLAAIKAKS
B2: HIV-2 CA N-terminal domain (CA^N) (domain or fragment)
chain: not shown

Legend:
[1] = target: CPSF6_(313–327) peptide (cleavage and polyadenylation specific factor 6, residues 313–327) (UniProt Q16630-2 313-327, N-terminal His tag omitted; strain not given, isolate Petaluma taken; CA residues 1-139 by alignment to HIV-1 CA 1-146); assay: ITC
[2] = target: CPSF6_(313–327) peptide (cleavage and polyadenylation specific factor 6, residues 313–327) (UniProt Q16630-2 313-327); assay: ITC

Row | Binder | Kd [1] | Kd [2]
1 | B1 | 242 µM | 
2 | B2 |  | 350 µM
